One assay has as its target HLA-A*0201 (Homo sapiens, UniProt P04439, D140Y/D185E/D98H/E176V/E277Q/G131W/G231S/I119V/I121R/I166T/I218V/L300P/L318F/N151K/N90K/P208A/P217A/Q86G/Q94H/R138H/R169H/T345S). The procedure: T2 cells (2·10^5 cells per well) are incubated with decreasing concentrations of peptides from 100 μM to 0.1 μM in a AIMV medium supplemented with 100 ng/μl of human P2m at 37° C. for 16 hours.
The analysis is achieved by FACS (Guava Easy Cyte).
The relative affinity is then determined as follows:
Each peptide is solubilized by taking into account the amino acid composition. […] Other peptides are resuspended in water or PBS pH7.4.
T2 cells (2·10^5 cells per well) were incubated with decreasing concentrations of peptides from 100 μM to 0.1 μM in a AIMV medium supplemented with 100 ng/μl of human P2m at 37° C. for 16 hours.
The analysis was achieved by FACS (Guava Easy Cyte).

Assay [1] addresses T1, HLA-A*0201 molecule expressed on human tumor cell line T2 (human).
T1 construct: surface HLA-A2 read with anti-HLA-A2 antibody BB7.2-PE by FACS; also called HLA-A2
The experiment in a line: T2 cell HLA-A2 stabilisation, FACS; ratio of 20% concentration to that of HIV pol 589-597 (lower = stronger).

For assay [2], the target named is T1, HLA-A*0201 molecule expressed on human …. The experiment in a line: T2 cell HLA-A2 stabilisation, FACS; 20% of signal of HIV pol 589-597 at 100 µM.
For assay [3] the target is unchanged. The experiment in a line: T2 cell HLA-A2 stabilisation, FACS; ratio of 20% concentration to that of HIV pol 589-597 (lower = stronger). This is another data set of the same source.
For assay [4] the target is unchanged. The experiment in a line: T2 cell HLA-A2 stabilisation, FACS; peptide at 3.125 µM.
For assay [5] the target is unchanged. The experiment in a line: T2 cell HLA-A2 stabilisation, FACS; peptide at 25 µM.
Assay [6] shares this target. The experiment in a line: T2 cell HLA-A2 stabilisation, FACS; 20% of signal of HIV pol 589-597 at 100 µM. The source holds these as a separate data set.
Assay [7] shares this target. The experiment in a line: T2 cell HLA-A2 stabilisation, FACS; peptide at 6.25 µM.
Assay [8] has the same target. The experiment in a line: T2 cell HLA-A2 stabilisation, FACS; peptide at 50 µM.
For assay [9] the target is unchanged. The experiment in a line: T2 cell HLA-A2 stabilisation, FACS; peptide at 100 µM.
Assay [10] has the same target. The experiment in a line: T2 cell HLA-A2 stabilisation, FACS; peptide at 1.5625 µM.
Where [11] appears, read: T2 cell line, HLA-A*0201, Example 13, protocol as in Example 3.
Where [12] appears, read: HLA-A*0201, HIV peptide printed as 1.

Like-named read-outs stand apart in the source and are kept apart here.

Take FMPFGFILPI [IL13RA2-B6]: the “Concentration of peptide that induces 20% of HLA-A2 expression” value with HLA-A*0201 (setting [11]) was 5.9 µM.
Turning to YLYTFLIST [IL13RA2-B2], the “In vitro binding affinity” value in the assay with HLA-A*0201 (setting [12]) worked out at 5.97. For the same molecule, in the assay with HLA-A*0201 (setting [11]), the “Concentration of peptide that induces 20% of HLA-A2 expression” value is 4.5 µM.
As for ALPFGFILV [1A9V, reference compound], the “Concentration of peptide that induces 20% of HLA-A2 expression” value with HLA-A*0201 (setting [11]) was determined as 20.9 µM; with HLA-A*0201 (Table 12, Example 7) it was 36.5 µM.
Turning to YLPFGFILV [IL13RA2-B5], the “Concentration of peptide that induces 20% of HLA-A2 expression” value with HLA-A*0201 (setting [11]) turned out to be 1.5 µM.
RLSSYLVEI [FOXM1-B]: the “Concentration of peptide that induces 20% of HLA-A2 expression” value with HLA-A*0201 (Table 14, Example 8) turned out to be 46.7 µM.
Same read-out and setting: for “RVSSYLVPI (listed as Homo sapiens) [FOXM1-H, reference compound]” the value was 37.6 µM.
Turning to LMLGEFLKL [2M, reference compound], the “Concentration of peptide that induces 20% of HLA-A2 expression” value in the assay with HLA-A*0201 (Table 17, Example 12) was 2.87 µM.
Turning to FMPFGFILGV [IL13RA2-B3], in the assay with HLA-A*0201 (setting [11]), the “Concentration of peptide that induces 20% of HLA-A2 expression” value was 3.3 µM.
Consider “HIV: Reference peptide HIV pol 589-597, positive control (ISPIETVPV; UniProt P04585 589-597, looked up, fragment) [reference compound]”, for which the “In vitro binding affinity” value with HLA-A*0201 (setting [12]) was found to be 1; with HLA-A*0201 (Table 17, Example 12, relative affinity vs HIV), 1.00. In addition, the “Concentration of peptide that induces 20% of HLA-A2 expression” value with HLA-A*0201 (Table 17, Example 12) is 0.85 µM. Further, the “Relative HLA-A2 labelling on T2 cells (HIV at 100 μM = 100)” value was found to be 2.405 in the assay with HLA-A*0201 (Table 18, peptide concentration 0.1 μM); 22.14 with HLA-A*0201 (Table 18, peptide concentration 1 μM); 84.725 in the assay with HLA-A*0201 (Table 18, peptide concentration 10 μM); 100 with HLA-A*0201 (Table 18, peptide concentration 100 μM).
For the molecule YMPFGFILV [IL13RA2-B4], the “Concentration of peptide that induces 20% of HLA-A2 expression” value with HLA-A*0201 (setting [11]) was 4.5 µM.
Consider FMPFGFILV [IL13RA2-B2 (SEQ ID NO: 64, Example 13)], for which, in assay [1], the “In vitro binding affinity (relative affinity)” value was 5.97. Besides, in assay [2], the “Concentration of peptide that induces 20% of HLA-A2 expression” value was determined as 4.5 µM.
In the same order, the values of YLPFGFILV [IL13RA2-B5] are 1.76 and 1.5 µM.
In the same order, the values of YMPFGFILV [IL13RA2-B4] are 5.24 and 4.5 µM.
In the same order, the values of FMPFGFILPI [IL13RA2-B6] are 6.86 and 5.9 µM.
For YTLGEFLYI [BIRC5-B2], the “In vitro binding affinity (relative affinity)” value in assay [3] worked out at 4.5. The “mean relative fluorescence intensity” value is 6.6 relative (HIV peptide = 100) in [4]; 29.6 relative (HIV peptide = 100) in assay [5]; 9 relative (HIV peptide = 100) in assay [7]; 54.4 relative (HIV peptide = 100) in assay [8]; 58 relative (HIV peptide = 100) in assay [9]. Moreover, the “Concentration of peptide that induces 20% of HLA-A2 expression” value in assay [6] amounted to 14.7 µM.
Regarding FMPFGFILGV [IL13RA2-B3], the “In vitro binding affinity (relative affinity)” value in assay [1] turned out to be 4.39. Also, the “Concentration of peptide that induces 20% of HLA-A2 expression” value in assay [2] came to 3.3 µM.
GLLGEFLQI [BIRC5-B3]: the “In vitro binding affinity (relative affinity)” value in [3] was determined as 7. The “mean relative fluorescence intensity” value in assay [4] is 8.9 relative (HIV peptide = 100); in [5], 20.9 relative (HIV peptide = 100); in assay [8] it was 29.8 relative (HIV peptide = 100); in [9], 35 relative (HIV peptide = 100); in [10], 9.4 relative (HIV peptide = 100). Moreover, the “Concentration of peptide that induces 20% of HLA-A2 expression” value in [6] was found to be 22.9 µM.
As to RLSSYLVEI [FOXM1-B], the “In vitro binding affinity (relative affinity)” value in assay [3] was determined as 4.6. In addition, the “mean relative fluorescence intensity” value in assay [4] is 0 relative (HIV peptide = 100); in [5], 7.6 relative (HIV peptide = 100); in assay [7] it was 0 relative (HIV peptide = 100); in [8], 21.3 relative (HIV peptide = 100); in assay [9] it was 47.5 relative (HIV peptide = 100); in assay [10], 0 relative (HIV peptide = 100). Moreover, the “Concentration of peptide that induces 20% of HLA-A2 expression” value in assay [6] worked out at 46.7 µM.
Take LMDLSTTEV [FOXM1-B2]: the “In vitro binding affinity (relative affinity)” value in [3] is 1.3. For the same molecule, the “mean relative fluorescence intensity” value in assay [4] was 12.7 relative (HIV peptide = 100); in [5], 98.2 relative (HIV peptide = 100); in assay [7], 33.5 relative (HIV peptide = 100); in assay [8], 91.5 relative (HIV peptide = 100); in [9], 105 relative (HIV peptide = 100); in assay [10], 7.2 relative (HIV peptide = 100). The “Concentration of peptide that induces 20% of HLA-A2 expression” value in assay [6] came to 6.7 µM.
Turning to WLPFGFILI [IL13RA2-H], the “mean relative fluorescence intensity” value is 3.7 relative (HIV peptide = 100) in assay [4]; 11.2 relative (HIV peptide = 100) in assay [5]; 9.6 relative (HIV peptide = 100) in assay [7]; 14.2 relative (HIV peptide = 100) in [8]; 26.5 relative (HIV peptide = 100) in assay [9]; 3 relative (HIV peptide = 100) in [10]. The “In vitro binding affinity (relative affinity)” value in assay [1] came to 78.8. For the same molecule, the “Concentration of peptide that induces 20% of HLA-A2 expression” value in assay [2] was 62.3 µM.
On to RVSSYLVPI [FOXM1-H], for which the “In vitro binding affinity (relative affinity)” value in assay [3] came to 3.7. Moreover, the “mean relative fluorescence intensity” value in assay [4] is 0 relative (HIV peptide = 100); in assay [5], 10.5 relative (HIV peptide = 100); in [7], 0 relative (HIV peptide = 100); in assay [8], 30.7 relative (HIV peptide = 100); in assay [9], 83.8 relative (HIV peptide = 100); in assay [10] it was 0 relative (HIV peptide = 100). The “Concentration of peptide that induces 20% of HLA-A2 expression” value in assay [6] was 37.6 µM.
In the case of LMDLSTTPL [FOXM1-H2], the “In vitro binding affinity (relative affinity)” value in [3] was 2.5. Further, the “mean relative fluorescence intensity” value in assay [4] is 0.9 relative (HIV peptide = 100); in [5], 65.4 relative (HIV peptide = 100); in [7], 19.7 relative (HIV peptide = 100); in assay [8], 62.5 relative (HIV peptide = 100); in [9] it was 77.6 relative (HIV peptide = 100); in assay [10] it was 5.3 relative (HIV peptide = 100). The “Concentration of peptide that induces 20% of HLA-A2 expression” value in assay [6] was determined as 12.6 µM.
